Reference: the supplement of paper PMC10126150
± gives the standard deviation of the averaged measurements.

Each sequence was assayed on ATP (assay: switch fluorescence ratio, 500 uM ATP over buffer (Cy3 cluster intensity, sum of 5 cycles each) (fold (ratio)); higher = stronger signal-on switching upon ATP binding; sequences stand for … in TCGTCGGCAGCGTCAGATGTGTATAAGAGACAGTTTTTTTTTTTTTTTTTTTTTTTTT…TC). Conditions: aptamer strand: ATP DNA aptamer (quencher-CACCTGGGGGAGTATTGCGGAGGAAGG + anchor), 100 nM annealed; ATP concentration: 500 uM.
Outline: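 Per cluster, summed Cy3 intensity from the target cycles was divided by that from the buffer cycles to give the fluorescence ratio, then averaged per switch-domain sequence. Clusters outside 100-1000 RFU were excluded. The Cy3-labelled switching-strand clusters, on a modified Illumina MiSeq flow-cell, were annealed to 100 nM quencher-labelled ATP aptamer and imaged in selection buffer, then after 15 min with 500 uM ATP at 22 °C, for five cycles with NaOH stripping and re-annealing between them.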
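Note: ATP exposure 15 min at 22 °C before imaging.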

Row | Sequence | switch fluorescence ratio
1 | CGTTCAGGGG | 1.16 ± 0.024
2 | CCTGTTTCTA | 1.17 ± 0.23
3 | TTGTTTATAA | 1.02 ± 0.083
4 | ATCTGGTGCT | 1.052 ± 0.0059
5 | CGGGTTGCCT | 0.999 ± 0.028
6 | ACAAGGTGAC | 1.082 ± 0.0021
7 | GCCTTATATA | 0.9952 ± 0.0063
8 | GTGATGTTGG | 1.02 ± 0.029
9 | GACGTGGAAG | 1.01 ± 0.024
10 | TTTGGGTTCG | 0.986 ± 0.019
11 | TTGTCAGCGT | 0.997 ± 0.012
12 | GTTTTTAGTG | 0.983 ± 0.038
13 | AACGCGACAT | 1.29 ± 0.022
14 | CGGTAGATCG | 1 ± 0.073
15 | GCACGGGGAA | 1.02 ± 0.028
16 | GCCTATTTGG | 0.998 ± 0.023
17 | TGTGGCGCCA | 0.987 ± 0.04
18 | TATATGGTGT | 1.02 ± 0.024
19 | TGAGTGAATG | 0.9787 ± 0.0042
20 | ACGGGATTTC | 1.05 ± 0.028
21 | CATTTTTTTT | 0.995 ± 0.02
22 | ATGGGGGATA | 0.973 ± 0.041
23 | ACGTCCAAAA | 1.04 ± 0.026
24 | CATGTTGGCT | 1.012 ± 0.0039
25 | TAGTCGGAGA | 1.01 ± 0.019

Row | Sequence | switch fluorescence ratio
26 | TTGAAGAAAC | 1.04 ± 0.018
27 | ATGGAGATAG | 1.01 ± 0.026
28 | CATTTTCTAA | 1.04 ± 0.047
29 | ATTGAGGGTC | 0.986 ± 0.018
30 | GGTGCTTTTG | 0.9888 ± 0.0085
31 | TTAGACTTAT | 1.01 ± 0.021
32 | CAATTAACGG | 1.04 ± 0.027
33 | GTTATAATGG | 0.9998 ± 0.0087
34 | TTGTTTGCGA | 0.999 ± 0.01
35 | ATGTTTGTTT | 0.993 ± 0.05
36 | GGGGTGAGAG | 0.993 ± 0.026
37 | TGATGCAAGA | 1.3 ± 0.063
38 | CAGTGCGTTT | 1.01 ± 0.013
39 | GGCCTATCAC | 1.016 ± 0.0078
40 | GGTGTGGGGG | 1.01 ± 0.04
41 | CGGGCGTCTC | 0.996 ± 0.022
42 | AGTTACGGGC | 1.01 ± 0.017
43 | TGAGATTTTG | 0.983 ± 0.045
44 | TTGGGGGCGT | 1.03 ± 0.058
45 | TTGTTATTTA | 0.9903 ± 0.0019
46 | CGGTTCGGAT | 0.989 ± 0.017
47 | TTCACGGTCG | 1.03 ± 0.024
48 | TGAAAAAAAA | 0.971 ± 0.025
49 | ATATCGGCGT | 1.55 ± 0.82
50 | TTTCGGTATT | 1.02 ± 0.02

Row | Sequence | switch fluorescence ratio
51 | GTTTGGGTAA | 0.99 ± 0.037
52 | CACTCTGCTG | 1.19 ± 0.012
53 | GTAATAGGTC | 1.013 ± 0.0088
54 | ATGCCATTAA | 0.9718 ± 0.0018
55 | GGTCTGGCTT | 0.988 ± 0.052
56 | GGGGAATTGT | 1.02 ± 0.056
57 | GAATTGGAAG | 0.968 ± 0.025
58 | TAAAACTCCA | 1.03 ± 0.038
59 | GAGGGGGGTC | 1.04 ± 0.064
60 | TCAGGGGGAA | 1.01 ± 0.024
61 | GGGGAAGAAC | 1.14 ± 0.18
62 | TTGCTGTTTG | 1 ± 0.034
63 | TTTATCCGTC | 0.96 ± 0.033
64 | TGGGGCTCTT | 1 ± 0.013
65 | TAAAGTGCGA | 0.993 ± 0.035
66 | GATGGACCTT | 1.08 ± 0.11
67 | TGTTAGTATT | 0.999 ± 0.019
68 | TAGTACTATC | 0.993 ± 0.021
69 | TAATTTGTGT | 1.01 ± 0.014
70 | TGAAGGGGAA | 1.02 ± 0.061
71 | ACAACGGTCT | 1.042 ± 0.0035
72 | GATATGTTCC | 1.13 ± 0.084
73 | CATAGGCATT | 1.03 ± 0.016
74 | AGACGATTGG | 0.974 ± 0.076
75 | ACTCCGACCG | 1.72 ± 0.14

Row | Sequence | switch fluorescence ratio
76 | GTTAGAATAA | 0.958 ± 0.015
77 | TTAAGGTGAG | 1.02 ± 0.021
78 | ACAGGAAAAA | 0.976 ± 0.084
79 | GCTGTTGCTG | 1 ± 0.035
80 | TATAACGTCC | 1.11 ± 0.093
81 | ATTAGATTTT | 1.02 ± 0.12
82 | GGTTAAAGGT | 1.02 ± 0.026
83 | AAAGGTGTGT | 1.04 ± 0.073
84 | GCCAGCAAGC | 2.25 ± 0.34
85 | CAGGTAGTCT | 0.997 ± 0.024
86 | TTATGAAGGA | 1.02 ± 0.021
87 | AAGTAGGCGC | 0.9958 ± 0.008
88 | AAGGGGGAGA | 0.994 ± 0.03
89 | GATCTTTCAT | 1 ± 0.018
90 | TCTTAGGCTG | 1.01 ± 0.018
91 | GTGAGGGTTG | 0.975 ± 0.03
92 | ATGCTGAGGA | 0.977 ± 0.042
93 | GCTAACGGAG | 1.0112 ± 0.00048
94 | TGTATCGTCG | 0.944 ± 0.023
95 | TTGTTGATGC | 1.14 ± 0.021
96 | TACGTCCCCG | 1.03 ± 0.04
97 | TATAAGGCTA | 1.02 ± 0.028
98 | TCGGGTTCTT | 1.02 ± 0.027
99 | ATTGGCGTGC | 0.987 ± 0.03
100 | TTTATAAAAC | 1.01 ± 0.051

Row | Sequence | switch fluorescence ratio
101 | CCGGTTCAGG | 1.05 ± 0.016
102 | GCTGTGATA | 0.976 ± 0.019
103 | GCGAAAAGAA | 1.05 ± 0.054
104 | GTTATTCAAT | 0.9724 ± 0.0018
105 | AACGCGGGGG | 0.983 ± 0.044
106 | ACGTAATTAA | 1.13 ± 0.026
107 | GAGTAGCATG | 0.993 ± 0.022
108 | TCGGAGCTTC | 4.06 ± 1.4
109 | CTTAGGGTT | 0.997 ± 0.044
110 | AGGTTGTGCG | 1 ± 0.042
111 | TACTTAGCGA | 1.18 ± 0.044
112 | GCGGGTAGCA | 1.04 ± 0.029
113 | AAAATCGCTT | 1.01 ± 0.065
114 | GGCGATCATA | 0.984 ± 0.024
115 | GCGTATAGGG | 0.964 ± 0.033
116 | CGATGGACGG | 1.01 ± 0.033
117 | GCCTGCTAGC | 1.008 ± 0.007
118 | TGTTATCGTT | 0.989 ± 0.018
119 | TGCAACCTCC | 2.29 ± 1.1
120 | TTTTAGAGAT | 1.02 ± 0.038
121 | ATCGATTTTT | 1 ± 0.032
122 | TCAGAGGCTG | 0.988 ± 0.015
123 | TGTAATTCTA | 1.011 ± 0.0032
124 | TTTTCCTCTT | 1.02 ± 0.014
125 | TTAAGGAGGA | 0.981 ± 0.03

Row | Sequence | switch fluorescence ratio
126 | ATGGATAT | 0.98 ± 0.031
127 | GTATTGGGTA | 0.99 ± 0.028
128 | TTTAAGGTAT | 0.957 ± 0.023
129 | GACGAGGG | 1.03 ± 0.038
130 | CTTAGGGCTC | 1.026 ± 0.0042
131 | GCACATGGCC | 1.03 ± 0.02
132 | TTTTTGGAGA | 0.994 ± 0.025
133 | CTCGTCAATT | 1.52 ± 0.24
134 | TGACCAGGCA | 1.05 ± 0.056
135 | GTTGGCGTTT | 1.02 ± 0.08
136 | GTAGGTTTGA | 0.994 ± 0.012
137 | AAGATATAGA | 1.014 ± 0.0027
138 | CAGTCTGGTA | 0.9966 ± 0.0042
139 | AAGGTGTGGG | 1.01 ± 0.015
140 | TATGGATTGC | 0.988 ± 0.032
141 | TGGTGGATGG | 1.22 ± 0.29
142 | CGGGCCGGGA | 0.976 ± 0.025
143 | GGGGTTTTGG | 0.995 ± 0.025
144 | GGAATTGGGT | 0.99 ± 0.044
145 | CTATGTGTCA | 0.977 ± 0.05
146 | ACATAAGTG | 1.02 ± 0.019
147 | TCTAACCTGG | 1.006 ± 0.0042
148 | AGTGAGTGTA | 0.979 ± 0.015
149 | TCATGGGAAG | 1.02 ± 0.077
150 | CGGGTACTTT | 1 ± 0.059

Row | Sequence | switch fluorescence ratio
151 | ATTTGGCGGT | 0.997 ± 0.025
152 | TTAGGGTCCC | 1.02 ± 0.016
153 | GGGGCTTTCC | 1.09 ± 0.052
154 | ATACGTTTGG | 1.01 ± 0.054
155 | TGTTGGCGCG | 0.989 ± 0.053
156 | GTAGGGATTA | 0.9779 ± 0.0064
157 | TTGAGGCCCA | 1.17 ± 0.22
158 | AATTGCGGTA | 0.982 ± 0.05
159 | CCGAAACTTG | 1.07 ± 0.038
160 | TTAACTTTCT | 1.058 ± 0.0094
161 | AGGCACAGAA | 1.019 ± 0.0098
162 | ATATGGGAAA | 0.978 ± 0.025
163 | GAGTGGGATT | 0.981 ± 0.011
164 | TCCAGTATGG | 1.012 ± 0.008
165 | AGAATAAGAC | 1.02 ± 0.085
166 | TTAGGGATCT | 0.9904 ± 0.0042
167 | TTTGACGGTG | 1.01 ± 0.034
168 | GCTGGGGACT | 0.996 ± 0.02
169 | TTTTCAAAGC | 1.67 ± 0.84
170 | ATTTTAGAAA | 1.01 ± 0.015
171 | TGAACGACAG | 1.031 ± 0.0093
172 | GGGGGTTGAC | 1.01 ± 0.027
173 | AATCCGGGGC | 2.35 ± 1.6
174 | TAAATCGGCG | 0.989 ± 0.023
175 | TTTGCTGTTT | 1.01 ± 0.013

Row | Sequence | switch fluorescence ratio
176 | CAGTCTGCTG | 1.0037 ± 0.00071
177 | CGCATGGAGT | 1.04 ± 0.015
178 | AGGAGGAAGT | 1.01 ± 0.026
179 | GGGAGGAAGA | 1.01 ± 0.03
180 | TCAATCTCCT | 1.03 ± 0.088
181 | GCTCTTGTTC | 0.9975 ± 0.0083
182 | AGTAGTTATT | 0.965 ± 0.011
183 | CGCTAGGTGT | 2.33 ± 0.76
184 | AGTGTTAGAC | 1.012 ± 0.0048
185 | ATAATAGAAT | 0.993 ± 0.025
186 | GCTGGTTGA | 1.01 ± 0.014
187 | CTTTGGAAAT | 0.9997 ± 0.0023
188 | TTAAAATATT | 0.993 ± 0.023
189 | TGATTTAATA | 0.984 ± 0.025
190 | TTGGATTTAG | 0.998 ± 0.0044
191 | AAGACCGGGG | 1.0215 ± 0.00047
192 | ATTACTGAGT | 1.03 ± 0.015
193 | CATGCGCTGG | 1.17 ± 0.13
194 | TGGACCGGTT | 1.034 ± 0.0016
195 | TATGAGGTTC | 0.983 ± 0.1
196 | GAACGGTATG | 1.02 ± 0.051
197 | CGAGACGGGG | 0.959 ± 0.042
198 | ACTTGGACGC | 1.14 ± 0.044
199 | CCTTGGGCTT | 1.04 ± 0.031
200 | ACGAAATGTT | 0.988 ± 0.021
